Experimental findings from patent US20170204454A1 (THERMO FISHER SCIENTIFIC BALTICS UAB, published 2017) are described below.

Experiment [1] concerns the target T1, Pyrococcus DNA polymerase with a sequence non-specific DNA binding domain (Pyrococcus).
T1 construct: It was the immunogen and the ELISA and Western blot antigen; also called Pyrococcus DNA polymerase-DBD
T1 chain: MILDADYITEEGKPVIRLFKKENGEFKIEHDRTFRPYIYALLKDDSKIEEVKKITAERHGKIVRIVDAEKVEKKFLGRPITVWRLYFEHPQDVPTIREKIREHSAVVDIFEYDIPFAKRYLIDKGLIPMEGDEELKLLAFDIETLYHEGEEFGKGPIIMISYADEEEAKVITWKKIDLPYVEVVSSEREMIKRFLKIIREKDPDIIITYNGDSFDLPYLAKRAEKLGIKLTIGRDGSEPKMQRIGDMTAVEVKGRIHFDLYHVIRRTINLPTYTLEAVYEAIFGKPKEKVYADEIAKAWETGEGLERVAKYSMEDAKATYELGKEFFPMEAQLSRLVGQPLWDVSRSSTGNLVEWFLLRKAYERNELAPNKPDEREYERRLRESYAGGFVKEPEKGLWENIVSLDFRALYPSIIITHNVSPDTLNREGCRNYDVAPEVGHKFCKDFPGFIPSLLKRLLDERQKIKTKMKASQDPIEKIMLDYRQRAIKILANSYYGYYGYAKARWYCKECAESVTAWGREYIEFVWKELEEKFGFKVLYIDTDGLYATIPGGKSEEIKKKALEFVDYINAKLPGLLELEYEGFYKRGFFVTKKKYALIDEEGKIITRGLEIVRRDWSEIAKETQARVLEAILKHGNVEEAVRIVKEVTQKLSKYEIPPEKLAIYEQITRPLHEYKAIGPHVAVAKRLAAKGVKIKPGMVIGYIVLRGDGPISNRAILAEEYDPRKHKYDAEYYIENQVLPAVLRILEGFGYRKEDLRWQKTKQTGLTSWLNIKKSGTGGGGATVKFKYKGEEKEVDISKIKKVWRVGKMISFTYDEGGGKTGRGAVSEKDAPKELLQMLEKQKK
Briefly: indirect ELISA, apparent dissociation constant. The protocol: The affinity of monoclonal antibodies was determined by measuring their apparent dissociation constants (kD) by an indirect ELISA (Table 2).
On the technique in general: In an ELISA, binding on a coated surface is turned into a signal by an enzyme label.

Experiment [2] deals with T1, Pyrococcus DNA polymerase with a …. The experiment is described as follows: cell-based or functional assay.

B1: 5D3 (antibody, V domains shown)
VH: SGPGLVAPSQSLSITCTVSGFSLTDYGVSWVRQSPGQGLEWLGIIWGDGSTDYHSSLISRLRISKDNSKSQVFLKLNSLQTDDTATYYCARPVIGNYAMDYWGQG
VL: TQSPASLAVSLGQRATISCRASESVEYYGTRLMQWYQQKPGKAPKLLIYGASNVESGVPARFSGSGSGTDFSLNIHPVEEDDFAMYFCQQSRKVPWTFGGG
notes: also called 5D3 antibody
B1: the Kd in experiment [1] came out at 0.29 nM. Besides, in experiment [2], the “Inhibition of exonuclease activity” value is 71 molar ratio enzyme:antibody (1:x) and the “Inhibition of polymerase activity” value is 20 molar ratio enzyme:antibody (1:x).
